Experimental data: patent US20150344570A1 (published 2015)

T1: FcγRIIb (human, UniProt P31994 43-217)
T1 construct: extracellular domain; also called FcgRIIb; 2b
T1 sequence (looked up): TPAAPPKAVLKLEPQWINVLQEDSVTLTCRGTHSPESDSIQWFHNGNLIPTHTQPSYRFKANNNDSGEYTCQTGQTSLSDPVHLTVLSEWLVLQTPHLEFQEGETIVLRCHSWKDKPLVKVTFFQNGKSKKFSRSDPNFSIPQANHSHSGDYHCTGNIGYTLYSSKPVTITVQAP


Experiments:
[1] = target: T2, FcγRIIIa (human, UniProt P08637 17-208); assay: SPR; He/Con_3a divided by He/Con_2b (FcγRIIIa against FcγRIIb)
T2 construct: extracellular domain; also called FcgRIIIa; 3a
T2 sequence (P08637 17-208): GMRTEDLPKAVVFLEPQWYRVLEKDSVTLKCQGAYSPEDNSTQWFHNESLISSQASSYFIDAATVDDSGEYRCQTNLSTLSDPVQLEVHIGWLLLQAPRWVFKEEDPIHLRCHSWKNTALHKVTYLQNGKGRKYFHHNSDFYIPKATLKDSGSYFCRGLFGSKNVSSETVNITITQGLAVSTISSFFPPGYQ

[2] = target: T1, FcγRIIb; assay: SPR (Biacore), relative binding
[3] = target: T2, FcγRIIIa; assay: SPR (Biacore), relative binding

He_3a/2b (IIIa/IIb) [1]	He/Con_2b [2]	He/Con_3a [3]	Binder
0.29 ratio	49.4 % of GpH7-A5/GpH7-B3/GpL16-k0	14.5 % of GpH7-A5/GpH7-B3/GpL16-k0	GpH7-A5/GpH7-B3 variant V266_15Y/GpL16-k0 (antibody, human IgG1, kappa, mutation in the GpH7-B3 chain only; also called He Ab) heavy 1: not shown heavy 2: not shown light: DIVMTQSPLSLPVTPGEPASISCQASESLVHSNRNTYLHWYLQKPGQSPQLLIYKVSNRFSGVPDRFSGSGSGTDFTLKISRVEAEDVGVYYCSQNTHVPPTFGQGTKVEIERTVAAPSVFIFPPSDEQLKSGTASVVCLLNNFYPREAKVQWKVDNALQSGNSQESVTEQDSKDSTYSLSSTLTLSKADYEKHKVYACEVTHQGLSSPVTKSFNRGEC
0.37 ratio	57.2 % of GpH7-A5/GpH7-B3/GpL16-k0	21.3 % of GpH7-A5/GpH7-B3/GpL16-k0	GpH7-A5/GpH7-B3 variant V266_16H/GpL16-k0 (antibody, human IgG1, kappa, mutation in the GpH7-B3 chain only; also called He Ab) heavy 1: not shown heavy 2: not shown light: DIVMTQSPLSLPVTPGEPASISCQASESLVHSNRNTYLHWYLQKPGQSPQLLIYKVSNRFSGVPDRFSGSGSGTDFTLKISRVEAEDVGVYYCSQNTHVPPTFGQGTKVEIERTVAAPSVFIFPPSDEQLKSGTASVVCLLNNFYPREAKVQWKVDNALQSGNSQESVTEQDSKDSTYSLSSTLTLSKADYEKHKVYACEVTHQGLSSPVTKSFNRGEC
0.44 ratio	69.7 % of GpH7-A5/GpH7-B3/GpL16-k0	30.4 % of GpH7-A5/GpH7-B3/GpL16-k0	GpH7-A5/GpH7-B3 variant V266_18N/GpL16-k0 (antibody, human IgG1, kappa, mutation in the GpH7-B3 chain only; also called He Ab) heavy 1: not shown heavy 2: not shown light: DIVMTQSPLSLPVTPGEPASISCQASESLVHSNRNTYLHWYLQKPGQSPQLLIYKVSNRFSGVPDRFSGSGSGTDFTLKISRVEAEDVGVYYCSQNTHVPPTFGQGTKVEIERTVAAPSVFIFPPSDEQLKSGTASVVCLLNNFYPREAKVQWKVDNALQSGNSQESVTEQDSKDSTYSLSSTLTLSKADYEKHKVYACEVTHQGLSSPVTKSFNRGEC
-0.7 ratio	1 % of GpH7-A5/GpH7-B3/GpL16-k0	-0.7 % of GpH7-A5/GpH7-B3/GpL16-k0	GpH7-A5/GpH7-B3 variant V266_11K/GpL16-k0 (antibody, human IgG1, kappa, mutation in the GpH7-B3 chain only; also called He Ab) heavy 1: not shown heavy 2: not shown light: DIVMTQSPLSLPVTPGEPASISCQASESLVHSNRNTYLHWYLQKPGQSPQLLIYKVSNRFSGVPDRFSGSGSGTDFTLKISRVEAEDVGVYYCSQNTHVPPTFGQGTKVEIERTVAAPSVFIFPPSDEQLKSGTASVVCLLNNFYPREAKVQWKVDNALQSGNSQESVTEQDSKDSTYSLSSTLTLSKADYEKHKVYACEVTHQGLSSPVTKSFNRGEC
0.27 ratio	15.2 % of GpH7-A5/GpH7-B3/GpL16-k0	4.1 % of GpH7-A5/GpH7-B3/GpL16-k0	GpH7-A5/GpH7-B3 variant V266_10E/GpL16-k0 (antibody, human IgG1, kappa, mutation in the GpH7-B3 chain only; also called He Ab) heavy 1: not shown heavy 2: not shown light: DIVMTQSPLSLPVTPGEPASISCQASESLVHSNRNTYLHWYLQKPGQSPQLLIYKVSNRFSGVPDRFSGSGSGTDFTLKISRVEAEDVGVYYCSQNTHVPPTFGQGTKVEIERTVAAPSVFIFPPSDEQLKSGTASVVCLLNNFYPREAKVQWKVDNALQSGNSQESVTEQDSKDSTYSLSSTLTLSKADYEKHKVYACEVTHQGLSSPVTKSFNRGEC
0.48 ratio	82.3 % of GpH7-A5/GpH7-B3/GpL16-k0	39.4 % of GpH7-A5/GpH7-B3/GpL16-k0	GpH7-A5/GpH7-B3 variant V266_14T/GpL16-k0 (antibody, human IgG1, kappa, mutation in the GpH7-B3 chain only; also called He Ab) heavy 1: not shown heavy 2: not shown light: DIVMTQSPLSLPVTPGEPASISCQASESLVHSNRNTYLHWYLQKPGQSPQLLIYKVSNRFSGVPDRFSGSGSGTDFTLKISRVEAEDVGVYYCSQNTHVPPTFGQGTKVEIERTVAAPSVFIFPPSDEQLKSGTASVVCLLNNFYPREAKVQWKVDNALQSGNSQESVTEQDSKDSTYSLSSTLTLSKADYEKHKVYACEVTHQGLSSPVTKSFNRGEC
0.39 ratio	89.2 % of GpH7-A5/GpH7-B3/GpL16-k0	34.7 % of GpH7-A5/GpH7-B3/GpL16-k0	GpH7-A5/GpH7-B3 variant V266_19Q/GpL16-k0 (antibody, human IgG1, kappa, mutation in the GpH7-B3 chain only; also called He Ab) heavy 1: not shown heavy 2: not shown light: DIVMTQSPLSLPVTPGEPASISCQASESLVHSNRNTYLHWYLQKPGQSPQLLIYKVSNRFSGVPDRFSGSGSGTDFTLKISRVEAEDVGVYYCSQNTHVPPTFGQGTKVEIERTVAAPSVFIFPPSDEQLKSGTASVVCLLNNFYPREAKVQWKVDNALQSGNSQESVTEQDSKDSTYSLSSTLTLSKADYEKHKVYACEVTHQGLSSPVTKSFNRGEC
0.52 ratio	54.4 % of GpH7-A5/GpH7-B3/GpL16-k0	28.1 % of GpH7-A5/GpH7-B3/GpL16-k0	GpH7-A5/GpH7-B3 variant V266_13S/GpL16-k0 (antibody, human IgG1, kappa, mutation in the GpH7-B3 chain only; also called He Ab) heavy 1: not shown heavy 2: not shown light: DIVMTQSPLSLPVTPGEPASISCQASESLVHSNRNTYLHWYLQKPGQSPQLLIYKVSNRFSGVPDRFSGSGSGTDFTLKISRVEAEDVGVYYCSQNTHVPPTFGQGTKVEIERTVAAPSVFIFPPSDEQLKSGTASVVCLLNNFYPREAKVQWKVDNALQSGNSQESVTEQDSKDSTYSLSSTLTLSKADYEKHKVYACEVTHQGLSSPVTKSFNRGEC
0.27 ratio	10.1 % of GpH7-A5/GpH7-B3/GpL16-k0	2.7 % of GpH7-A5/GpH7-B3/GpL16-k0	GpH7-A5/GpH7-B3 variant V266_09D/GpL16-k0 (antibody, human IgG1, kappa, mutation in the GpH7-B3 chain only; also called He Ab) heavy 1: not shown heavy 2: not shown light: DIVMTQSPLSLPVTPGEPASISCQASESLVHSNRNTYLHWYLQKPGQSPQLLIYKVSNRFSGVPDRFSGSGSGTDFTLKISRVEAEDVGVYYCSQNTHVPPTFGQGTKVEIERTVAAPSVFIFPPSDEQLKSGTASVVCLLNNFYPREAKVQWKVDNALQSGNSQESVTEQDSKDSTYSLSSTLTLSKADYEKHKVYACEVTHQGLSSPVTKSFNRGEC

Continued, binder first:

Binder	He_3a/2b (IIIa/IIb) [1]	He/Con_2b [2]	He/Con_3a [3]
GpH7-A5/GpH7-B3 variant S267_06M/GpL16-k0 (antibody, human IgG1, kappa, mutation in the GpH7-B3 chain only; also called He Ab) heavy 1: not shown heavy 2: not shown light: DIVMTQSPLSLPVTPGEPASISCQASESLVHSNRNTYLHWYLQKPGQSPQLLIYKVSNRFSGVPDRFSGSGSGTDFTLKISRVEAEDVGVYYCSQNTHVPPTFGQGTKVEIERTVAAPSVFIFPPSDEQLKSGTASVVCLLNNFYPREAKVQWKVDNALQSGNSQESVTEQDSKDSTYSLSSTLTLSKADYEKHKVYACEVTHQGLSSPVTKSFNRGEC	0.31 ratio	210 % of GpH7-A5/GpH7-B3/GpL16-k0	66 % of GpH7-A5/GpH7-B3/GpL16-k0
GpH7-A5/GpH7-B3 variant S267_07I/GpL16-k0 (antibody, human IgG1, kappa, mutation in the GpH7-B3 chain only; also called He Ab) heavy 1: not shown heavy 2: not shown light: DIVMTQSPLSLPVTPGEPASISCQASESLVHSNRNTYLHWYLQKPGQSPQLLIYKVSNRFSGVPDRFSGSGSGTDFTLKISRVEAEDVGVYYCSQNTHVPPTFGQGTKVEIERTVAAPSVFIFPPSDEQLKSGTASVVCLLNNFYPREAKVQWKVDNALQSGNSQESVTEQDSKDSTYSLSSTLTLSKADYEKHKVYACEVTHQGLSSPVTKSFNRGEC	0.13 ratio	192 % of GpH7-A5/GpH7-B3/GpL16-k0	25.2 % of GpH7-A5/GpH7-B3/GpL16-k0
GpH7-A5/GpH7-B3 variant V266_06M/GpL16-k0 (antibody, human IgG1, kappa, mutation in the GpH7-B3 chain only; also called He Ab) heavy 1: not shown heavy 2: not shown light: DIVMTQSPLSLPVTPGEPASISCQASESLVHSNRNTYLHWYLQKPGQSPQLLIYKVSNRFSGVPDRFSGSGSGTDFTLKISRVEAEDVGVYYCSQNTHVPPTFGQGTKVEIERTVAAPSVFIFPPSDEQLKSGTASVVCLLNNFYPREAKVQWKVDNALQSGNSQESVTEQDSKDSTYSLSSTLTLSKADYEKHKVYACEVTHQGLSSPVTKSFNRGEC	0.34 ratio	251 % of GpH7-A5/GpH7-B3/GpL16-k0	85.8 % of GpH7-A5/GpH7-B3/GpL16-k0
GpH7-A5/GpH7-B3 variant V266_02A/GpL16-k0 (antibody, human IgG1, kappa, mutation in the GpH7-B3 chain only; also called He Ab) heavy 1: not shown heavy 2: not shown light: DIVMTQSPLSLPVTPGEPASISCQASESLVHSNRNTYLHWYLQKPGQSPQLLIYKVSNRFSGVPDRFSGSGSGTDFTLKISRVEAEDVGVYYCSQNTHVPPTFGQGTKVEIERTVAAPSVFIFPPSDEQLKSGTASVVCLLNNFYPREAKVQWKVDNALQSGNSQESVTEQDSKDSTYSLSSTLTLSKADYEKHKVYACEVTHQGLSSPVTKSFNRGEC	0.71 ratio	81 % of GpH7-A5/GpH7-B3/GpL16-k0	57.4 % of GpH7-A5/GpH7-B3/GpL16-k0
GpH7-A5/GpH7-B3 variant V266_05P/GpL16-k0 (antibody, human IgG1, kappa, mutation in the GpH7-B3 chain only; also called He Ab) heavy 1: not shown heavy 2: not shown light: DIVMTQSPLSLPVTPGEPASISCQASESLVHSNRNTYLHWYLQKPGQSPQLLIYKVSNRFSGVPDRFSGSGSGTDFTLKISRVEAEDVGVYYCSQNTHVPPTFGQGTKVEIERTVAAPSVFIFPPSDEQLKSGTASVVCLLNNFYPREAKVQWKVDNALQSGNSQESVTEQDSKDSTYSLSSTLTLSKADYEKHKVYACEVTHQGLSSPVTKSFNRGEC	-1.98 ratio	0.4 % of GpH7-A5/GpH7-B3/GpL16-k0	-0.7 % of GpH7-A5/GpH7-B3/GpL16-k0
GpH7-A5/GpH7-B3 variant V266_08L/GpL16-k0 (antibody, human IgG1, kappa, mutation in the GpH7-B3 chain only; also called He Ab) heavy 1: not shown heavy 2: not shown light: DIVMTQSPLSLPVTPGEPASISCQASESLVHSNRNTYLHWYLQKPGQSPQLLIYKVSNRFSGVPDRFSGSGSGTDFTLKISRVEAEDVGVYYCSQNTHVPPTFGQGTKVEIERTVAAPSVFIFPPSDEQLKSGTASVVCLLNNFYPREAKVQWKVDNALQSGNSQESVTEQDSKDSTYSLSSTLTLSKADYEKHKVYACEVTHQGLSSPVTKSFNRGEC	0.5 ratio	236 % of GpH7-A5/GpH7-B3/GpL16-k0	118 % of GpH7-A5/GpH7-B3/GpL16-k0
GpH7-A5/GpH7-B3 variant V266_04F/GpL16-k0 (antibody, human IgG1, kappa, mutation in the GpH7-B3 chain only; also called He Ab) heavy 1: not shown heavy 2: not shown light: DIVMTQSPLSLPVTPGEPASISCQASESLVHSNRNTYLHWYLQKPGQSPQLLIYKVSNRFSGVPDRFSGSGSGTDFTLKISRVEAEDVGVYYCSQNTHVPPTFGQGTKVEIERTVAAPSVFIFPPSDEQLKSGTASVVCLLNNFYPREAKVQWKVDNALQSGNSQESVTEQDSKDSTYSLSSTLTLSKADYEKHKVYACEVTHQGLSSPVTKSFNRGEC	0.6 ratio	57.6 % of GpH7-A5/GpH7-B3/GpL16-k0	34.7 % of GpH7-A5/GpH7-B3/GpL16-k0
GpH7-A5/GpH7-B3 variant V266_07I/GpL16-k0 (antibody, human IgG1, kappa, mutation in the GpH7-B3 chain only; also called He Ab) heavy 1: not shown heavy 2: not shown light: DIVMTQSPLSLPVTPGEPASISCQASESLVHSNRNTYLHWYLQKPGQSPQLLIYKVSNRFSGVPDRFSGSGSGTDFTLKISRVEAEDVGVYYCSQNTHVPPTFGQGTKVEIERTVAAPSVFIFPPSDEQLKSGTASVVCLLNNFYPREAKVQWKVDNALQSGNSQESVTEQDSKDSTYSLSSTLTLSKADYEKHKVYACEVTHQGLSSPVTKSFNRGEC	0.75 ratio	152 % of GpH7-A5/GpH7-B3/GpL16-k0	114 % of GpH7-A5/GpH7-B3/GpL16-k0
